Experimental findings from patent US20220016205A1, “METHODS OF OVERCOMING RESISTANCE TO IMMUNE CHECKPOINT INHIBITORS” (Board of Regents, The University of Texas System, priority 2018, published 2022) are described below.

In experiment [1] the test system is CD4^+ T cells. The experiment can be described thus: Western blotting of p38a and SMAD1/5/9 phosphorylation in CD4+ T cells treated with BMP7 or BMP7 plus follistatin. The class given is cell-based, mouse. The following applies: BMP7 plus follistatin versus BMP7 alone, 1 hour (FIG. 4A). Here is the method:
Protein extraction and Western blot analysis. Total protein was extracted by using NP40 lysis buffer (0.5% NP40, 250 mmol/1 NaCl, 50 mmol/1 HEPES, 5 mmol/1 ethylenediaminetetraacetic acid, and 0.5 mmol/1 egtazic acid) supplemented with protease inhibitors cocktails (Sigma-Aldrich). Lysates were centrifuged at 10,000×g for 10 minutes, and the supernatant was collected for experiments. Protein lysates (40 μg) were resolved on denaturing gels with 4-20% sodium dodecyl sulfate-polyacrylamide and transferred to nitrocellulose membranes (Bio-Rad Laboratories, Hercules, Calif.). Membranes were probed with primary antibodies directed against BMP7 (Abcam, Catalog #ab56023), Phospho-Smad1 (Ser463/465)/Smad5 (Ser463/465)/Smad9 (Ser465/467) (Cell Signaling Technologies, Catalog #13820), p38 MAPK (Cell Signaling Technologies, Catalog #8690), Vinculin (Cell Signaling Technologies, Catalog #13901), β-Actin (Cell Signaling Technologies, Catalog #3700), and a secondary antibody conjugated with horseradish peroxidase (Amersham GE Healthcare). […]
(§1) Co-culture experiments and treatments. Viable cells were counted with a hemocytometer (0.4% Trypan blue solution) and diluted to 40,000 cells per well in 24-wells plates. […] RNA was then isolated from RAW 264.7 or CD4^+ T cells and analyzed for p38α, IL-1α, IL-1β, TNF-α, RANTES, IL-2 and IFN-γ expression with qPCR.
(In general: A western blot detects proteins with antibodies after separation by electrophoresis.)

The subject of experiment [2] is RAW 264.7 cells. Put plainly: qPCR of p38α, IL-1α, IL-1β, TNF-α, RANTES in RAW 264.7 cells treated with BMP7 or BMP7 plus follistatin. The class given is cell-based, murine. The settings on record: BMP7 plus follistatin versus BMP7 only, 24 or 48 hours (FIG. 3H). The text has this: (§2) Quantitative polymerase chain reaction (qPCR). Total RNA was isolated from cells and tumors with Triazol (Life Technologies) according to the manufacturer's protocol. For studies of BMP7, p38α, IL-1α, IL-1β, TNF-α, RANTES, IL-2, and IFN-γ expression, mRNA was retrotranscribed with the iScript™ gDNA Clear cDNA Synthesis Kit (BioRad) and analyzed by qPCR using SYBR Green (Life Technologies) with specific primers according to the manufacturer's protocol. The comparative Ct method was used to calculate the relative abundance of mRNAs compared with ACTB (beta-actin) expression for cancer cells or CD45 expression for immune cells.
(§3) Co-culture experiments and treatments. Viable cells were counted with a hemocytometer (0.4% Trypan blue solution) and diluted to 40,000 cells per well in 24-wells plates. Cells from 344SQP, 344SQR, 344SQ ctrl, or 344SQ-shBMP7 tumors were seeded at the top inserts (24-mm Transwell with 0.4-μm pore polycarbonate membrane insert, Sigma-Aldrich), and RAW 264.7 or CD4^+ T cells were seeded at the bottom of the transwell system. […] RNA was then isolated from RAW 264.7 or CD4^+ T cells and analyzed for p38α, IL-1α, IL-1β, TNF-α, RANTES, IL-2 and IFN-γ expression with qPCR.

For experiment [3], the system named is CD4^+ T cells. Put plainly: qPCR of p38α, IFN-γ, IL-2 in CD4+ T cells co-cultured with 344SQR cells plus follistatin. It counts as cell-based, mouse. The settings on record: 344SQR co-culture plus follistatin versus 344SQR without follistatin, 24 hours (FIG. 4G).
Excerpt: as §2, §1
(§4) Next, CD4^+ T cells were co-cultured with 344SQP or 344SQR cells, and 344SQR ctrl or 344SQR shBMP7 cells, and the expression of p38α, IFN-γ, and IL-2 analyzed. […] To confirm that these findings depended on BMP7 and not on some other secreted molecule, CD4^+ T cells were treated with BMP7 with or without follistatin and p38α, IFN-γ, and IL-2 expression evaluated. […]
For orientation: Real-time PCR tracks product formation cycle by cycle.

Experiment [4] relates to CD4^+ T cells. The experiment can be described thus: qPCR of p38α, IFN-γ, IL-2 in activated CD4+ T cells treated with BMP7 or BMP7 plus follistatin. The following applies: BMP7 plus follistatin compared with BMP7 only, 24 hours (FIG. 4F). It counts as cell-based, mouse.
Excerpt: as §2
as §3, with “system. CD4^+ T cells were isolated from splenocytes by using Dynabeads Untouched Mouse CD4 Cells Kit (Thermo Fisher Scientific—Life Technologies, Catalog #11416D) and activated with LEAF purified anti-mouse CD3c antibody (5 μg/mL) and LEAF purified anti-mouse CD28 antibody (1 μg/mL) (Biolegend).” for “system.”
as §4

The test system of another experiment is peritoneal macrophages. Put plainly: qPCR of p38α, IL-1α, IL-1β, TNF-α, RANTES in peritoneal macrophages treated with BMP7 or BMP7 plus follistatin. The settings on record: BMP7 plus follistatin compared with BMP7 only. It counts as cell-based, mouse.
Excerpt: as §2, §3

Experiment [5] deals with RAW 264.7 cells. The experiment can be described thus: Immunofluorescence of p38a and SMAD1/5/9 phosphorylation in RAW 264.7 cells treated with BMP7 or BMP7 plus follistatin. The class given is cell-based, murine. The following applies: 24 hours (FIG. 2K). Here is the method: Immunofluorescence analysis. RAW 264.7 cells were counted with a hemocytometer (0.4% Trypan blue solution), diluted to 200,000, and seeded in 4-well culture slides (Lab-Tek, Catalog #154917), and allowed to attach overnight. Cells were treated with 250 ng BMP7 (R&D Systems, Catalog #5666-BP-010) or follistatin (R&D Systems, Catalog #769-FS-025) and incubated for 24 h, and then fixed with 1% paraformaldehyde for 10 minutes, followed by a 10-minute wash in 70% ethanol at room temperature. Cells were then treated with 0.1% NP40 in PBS for 20 minutes, washed in PBS four times, and then blocked with 5% bovine serum albumin in PBS for 30 minutes. Cells were then incubated with p38a MAPK (L53F8) (Cell Signaling, Catalog #9228) and Phospho-Smad1 (Ser463/465), Smad5 (Ser463/465), and Smad9 (Ser465/467) (D5B10) (Cell Signaling, Catalog #13820) in 5% bovine serum albumin in PBS overnight according to the manufacturer's protocol. […] Slides were examined with a fluorescence microscope (Leica, Buffalo Grove, Ill.), and images were captured by a charge-coupled device camera and imported into the Advanced Spot Image analysis software package.

B1: follistatin: BMP7 antagonist protein, natural inhibitor of BMP7 (R&D Systems, Catalog #769-FS-025) (protein, UniProt P19883 30-344, looked up)
Follistatin: GNCWLRQAKNGRCQVLYKTELSKEECCSTGRLSTSWTEEDVNDNTLFKWMIFNGGAPNCIPCKETCENVDCGPGKKCRMNKKNKPRCVCAPDCSNITWKGPVCGLDGKTYRNECALLKARCKEQPELEVQYQGRCKKTCRDVFCPGSSTCVVDQTNNAYCVTCNRICPEPASSEQYLCGNDGVTYSSACHLRKATCLLGRSIGLAYEGKCIKAKSCEDIQCTGGKKCLWDFKVGRGRCSLCDELCPDSKSDEPVCASDNATYASECAMKEAACSSGVLLEVKHSGSCNSISEDTEEEEEDEDQDYSFPISSILEW
As to B1, the SMAD1/5/9 activation entry in the experiment on CD4^+ T cells [1] and with RAW 264.7 cells [5] (BMP7 plus follistatin versus BMP7 alone) was “lower” in each case. Besides, the p38a expression result with CD4^+ T cells [1] and in the experiment with RAW 264.7 cells [5] (BMP7 plus follistatin compared with BMP7 alone) was “higher” each time. The “expression of p38a and p38α-regulated cytokines and chemokines” value in the experiment on RAW 264.7 cells [2] is “higher expression”. In addition, the “expression of p38α, IFN-γ, and IL-2” value in the experiment with CD4^+ T cells [3] and in the experiment on CD4^+ T cells [4] was “higher expression” each time. The “levels of p38α, IL-1α, TNF-α, IL-1β, and RANTES” value in the experiment with peritoneal macrophages is “higher levels”.
